# T1: rat PD1 protein (rat, UniProt D3ZIN8 25-169)
# T1 construct: also called rat PD-1 proteins
# T1 sequence: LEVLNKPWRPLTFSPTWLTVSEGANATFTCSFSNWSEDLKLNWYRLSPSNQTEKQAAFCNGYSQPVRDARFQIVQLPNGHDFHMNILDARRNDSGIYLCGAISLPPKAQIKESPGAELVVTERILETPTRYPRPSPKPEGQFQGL
# Tests used:
# PD1-hFc [1] = target: T2, PD1-hFc (human, UniProt Q15116 25-170); assay: ProteOn XPR36; legend names PD1-hFc, the sheet names the immobilised protein PD-1 C-his
# T2 construct: extracellular domain; also called PD1-hFc protein; Human PD-1-Fc (S1420, Y-Biologics)
# [2] = target: T3, PD-1-His (S1352, Y-Biologics) (UniProt Q15116 25-170, limits assumed); assay: competition ELISA: PD-L2-Fc coated, PD-1-His as binder, antibody as competitor
# T3 construct: not shown: His tag
# Procedure: (§1) Human PD-1-Fc (S1420, Y-Biologics) or PD-L2-Fc (#10292-H02H, Sino) was added to wells of a 96-well immuno microplate (#439454, Thermo) and then washed three times with PBS containing 0.05% tween-20 (#P9416, Sigma-Aldrich), followed by allowing to stand in a cleaning solution containing 4% skim milk (#232120, Becton, Dickinson and Company) at room temperature for 1 hour to block non-specific binding. […] After the resulting product was subjected to the same washing method as above, the anti-Biotin-His antibody (#MA1-21315-BTIN, Thermo) diluted to 1:2000 was added to the well of the microplate, allowed to react at room temperature for 1 hour, streptavidin poly-HRP antibody (#21140, Pierce) diluted to 1:5000 was added to the well of microplate, reacted at room temperature for 1 hour and then washed in the same manner. 100 ul of a TMB substrate solution (#T0440, Sigma-Aldrich) was added to the reaction product, light was shielded, and the reaction product was allowed to stand at room temperature for 3 minutes, 50 μL of 2.5 M sulfuric acid (#S1478, Samchun) was added to stop the reaction, and absorbance was measured at 450 nm using a spectrophotometer (*GM3000, Glomax® Discover System Promega).
# [3] = target: T4, human PD-1 (NM_005018.2) over-expressed on cells (human, UniProt Q15116 25-288); assay: flow cytometry, 18 nM, over IgG
# T4 construct: whole, on cells; also called human PD-1 over-expressed on the cell surface; Jurkat cell line highly expressing human PD-1
# PD1-hFc [4] = target: T2, PD1-hFc; assay: competition ELISA: PD1-Fc coated, PDL1-His as binder, antibody as competitor
# Procedure: as §1
# [5] = target: T4, human PD-1 (NM_005018.2) over-expressed …; assay: flow cytometry on cells over-expressing human PD-1, fit of Geometric Mean
# monkey PD1 protein = target: T5, monkey PD1 protein (monkey); assay: SPR ProteOn XPR36; format for monkey PD1 not described
# T5 construct: also called monkey PD-1 proteins
# [6] = target: T4, human PD-1 (NM_005018.2) over-expressed …; assay: cell-based or functional assay
# rat PD1 protein = target: T1, rat PD1 protein; assay: SPR ProteOn XPR36; format for rat PD1 not described
# PD1-hFc [7] = target: T2, PD1-hFc; assay: SPR ProteOn XPR36, PD1-hFc immobilised, antibody as analyte; parent antibody, Example 4 text (FIG. 9), not the Table 12 run
# Procedure: A ProteOn XPR36 (BioRad) instrument was used. The GLC sensor chip (BioRad) was mounted on the instrument and washed with PBST buffer, and the carboxymethyldextran surface was activated with an EDC/sulfo-NHS mixed solution. PD1-hFc dissolved at a concentration of 5 ug/ml in a 10 mM sodium acetate buffer solution (pH 5.0) was injected and immobilized on the GLC sensor chip.
# In order to deactivate the activated carboxyl groups that remain unreacted with the PD1 protein, 1 M ethanolamine was flowed and 10 mM glycine (pH 2.0) was injected in order to wash proteins that remain unbound to the sensor chip.
# The equilibrium dissociation constant (KD) was calculated by plotting and fitting the sensogram data in the equilibrium state depending on concentration.
Binder,Kd (PD1-hFc [1]) [nM],koff (PD1-hFc [1]) [s⁻¹],IC50 [2] [nM],Fold [3],IC50 (PD1-hFc [4]) [nM],Bmax [5],Kd [5] [nM],Kd (monkey PD1 protein) [nM],koff (monkey PD1 protein) [s⁻¹],kon (monkey PD1 protein) [M⁻¹ s⁻¹],EC50 [6] [nM],Kd (rat PD1 protein) [nM],koff (rat PD1 protein) [s⁻¹],kon (rat PD1 protein) [M⁻¹ s⁻¹],Kd (PD1-hFc [7]) [nM]
"PD1-45D6 (antibody, V domains shown, scFv-phage in the screening ELISA; whole IgG in the other assays) VH: QVQLVESGGGVVQPGRSLRLSCAASGFTFSSYAMHWVRQVPGKGLEWVAVISYDGNDKYYADSVKGRFTISRDNSKNTLYLQMNSLRAEDTAVYYCVPTTFEYWGQGSQVTVSS VL: DIVMTQTPLSLPVTPGEAASISCRSSQSLLDSDDGKTYLDWYLQKPGQSPQLLIYTLSYRASGVPDRFSGSGSGTEFNLRISRVEAEDVGIYYCMQRVEFPFTFGQGTKLDIK",< 0.001,< 1.07e-07,49.6,286,3.72,1640,2.7,0.001,1e-07,154000,1.88,2.39,0.000133,55400,
"PD1-49A2 (antibody, V domains shown, scFv-phage in the screening ELISA; whole IgG in the other assays; also called Parent 49A2) VH: QVQLVESGGGVVQPGRSLRLSCAASGFTFSSYAMHWVRQAPGKGLEWVAVISYDGSNKYYADSVKGRFTISRDNPKNTLYLQMNSLRAEDTAVYYCTTTTFDSWGRGTLVTVSS VL: DIVMTQSPLSLPVTPGEPASISCRSSQSLFDSDDGNTYLDWYLQKPGQSPQLLIYTLSHRASGVPDRFSGSGSGTDFTLKISRVEAEDVGIYYCLQRMGFPYTFGQGTKVEIK",,,59.7,222,3.92,3000,38.2,0.001,1e-07,168000,,,,,0.019
